Paper PMC8322138, “BRCA2 binding through a cryptic repeated motif to HSF2BP oligomers does not impact meiotic recombination” (Nature Communications, 2021)
Ends that are not written are not given here.

Legend:
[1] = target: mouse HSF2BP-GFP (homozygous Hsf2bp-GFP knock-in allele) (mouse (endogenous in mES cells)) (UniProt Q9D4G2); assay: co-IP; anti-GFP nanobody beads on lysates of Hsf2bp^GFP/GFP mES cells with Brca2 wt, ∆12 or ∆12-14 alleles; BRCA2 blotted, fluorescent secondary antibodies; NETT buffer
ARM domain of HSF2BP [2] = target: T1, ARM domain of HSF2BP (Homo sapiens, UniProt O75031); assay: Analytical gel filtration of ARM with F15XΔ12; assay type: physicochemical; conditions: SEC, Superose 6 Increase 10/300, ARM to peptide ratio 1:1.2, pH 7.5
T1 construct: The armadillo domain of HSF2BP, from aa 122 to aa 334; 6xHis-TEV (N, cleaved yes); made in house; host or cells: E. coli BL21 DE3 Rosetta2
T1 sequence (O75031 122-334): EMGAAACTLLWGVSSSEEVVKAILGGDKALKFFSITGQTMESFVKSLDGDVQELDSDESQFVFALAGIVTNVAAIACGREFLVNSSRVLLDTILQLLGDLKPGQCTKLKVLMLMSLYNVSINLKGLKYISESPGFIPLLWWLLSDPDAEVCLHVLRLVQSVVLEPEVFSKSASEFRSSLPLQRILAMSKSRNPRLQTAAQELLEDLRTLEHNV
Experimental: SEC was also used to characterize ARM and ARM bound to F15XΔ12. The ARM domain was loaded on a Superose 6 Increase 10/300 (GE Healthcare) alone (at 2 mg/ml) or bound to F15XΔ12 (at 5 mg/ml, ARM to peptide ratio 1:1.2) in 25 mM Tris-HCl buffer, pH 7.5, 250 mM NaCl, and 5 mM β-mercaptoethanol. The OD values from the elution of ARM alone were multiplied by 2.5 to be compared to the OD values from the elution of ARM bound to F15XΔ12.

HSF2BP FL = target: T2, HSF2BP FL (Homo sapiens, UniProt O75031); assay: ITC of BRCA2 fragments with full-length HSF2BP; assay type: binding; conditions: for n (stoichiometry) / ΔG / −TΔS / ΔH (±error) / affinity (in words): 293 K; for stoichiometry: BRCA2 peptide per HSF2BP
T2 construct: Human full-length HSF2BP WT and R200T were expressed; 6xHis-TEV (N, cleaved yes); made in house; host or cells: E. coli BL21 DE3 Rosetta2
T2 sequence (O75031 1-334): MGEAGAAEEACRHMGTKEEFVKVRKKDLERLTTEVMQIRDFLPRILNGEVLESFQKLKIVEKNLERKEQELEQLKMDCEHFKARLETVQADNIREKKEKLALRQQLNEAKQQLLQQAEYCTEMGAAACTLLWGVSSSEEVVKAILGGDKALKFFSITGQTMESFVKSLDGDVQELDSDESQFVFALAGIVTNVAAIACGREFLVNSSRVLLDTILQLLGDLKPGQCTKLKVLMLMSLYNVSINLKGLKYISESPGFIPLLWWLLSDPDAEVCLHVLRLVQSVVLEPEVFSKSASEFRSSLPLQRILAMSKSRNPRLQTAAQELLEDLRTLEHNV
Source text: (§1) Human full-length HSF2BP WT and R200T were expressed using a pETM11 (6xHis-TEV) expression vector in E. coli BL21 DE3 Rosetta2 cells, and purified as previously reported (Brandsma et al., Cell Rep 2019). The armadillo domain of HSF2BP, from aa 122 to aa 334, which we will further name ARM, was similarly expressed using a pETM11 (6xHis-TEV) expression vector in BL21 DE3 Rosetta2 cells and purified as full-length HSF2BP.
(§2) Human BRCA2 fragment F0 was expressed using a pET-22b expression vector as a fusion protein comprising BRCA2 from aa 2213 to aa 2342 (including mutation C2332T to avoid oxidation problems), a TEV site, a GB1 and 6xHis tag, in E. coli BL21 DE3 Star cells. The BRCA2 gene was optimized for expression in bacteria and synthesized by Genscript. In addition, smaller BRCA2 fragments were produced using the same strategy: FNMR and F15X corresponding to aa 2252 to aa 2342 and aa 2291 to aa 2343, respectively. The smallest fragment F15X∆12, from aa 2312 to aa 2342, was synthesized by Genecust.
(§3) ITC experiments were performed using a high-precision VP-ITC instrument (GE Healthcare) at 293 K. To characterize the interactions between HSF2BP and BRCA2 fragments (WT, variants), the proteins were dialyzed against 25 mM Tris pH 7.5, 250 mM NaCl, 5 mM β-mercaptoethanol. The HSF2BP (or ARM domain) was in the sample cell at 10–20 μM and was titrated by BRCA2 fragments at 40–100 μM, using 10 μL injections with 210 s intervals between each injection. The first 2 μL injection was ignored in the final data analysis. The integration of the peaks corresponding to each injection. the correction for the baseline and the fit were performed using the Origin 7.0 software provided by the manufacturer, to obtain the stoichiometry (N), dissociation constant (Kd), and enthalpy of complex formation (ΔH) for each interaction. Two replicates were performed for each experiment.

[3] = target: mouse BRCA2-GFP ∆12 (exon 12 deleted) (mouse (endogenous in mES cells)) (UniProt P97929); assay: co-IP; anti-GFP nanobody beads on lysates of mES cells with homozygous Brca2-GFP alleles (full, ∆12, ∆12-14); HSF2BP blotted, fluorescent secondary antibodies; NETT buffer
HSF2BP mutant R200T = assay: ITC of BRCA2 F0 with HSF2BP R200T; assay type: binding, human; conditions: ITC control
Experimental: as §1, §3

ARM domain of HSF2BP [4] = target: T1, ARM domain of HSF2BP; assay: ITC of BRCA2 fragments with HSF2BP armadillo domain; assay type: binding; conditions: for ΔG / −TΔS / ΔH (±error): 293 K
Source text: as §1, §2, §3

[5] = NMR chemical shift secondary structure analysis of F0; assay type: physicochemical, human; conditions: 50 mM Hepes pH 7.0, 50 mM NaCl, 283 K, 700 MHz
Experimental: (§4) For NMR analysis, ^15N-labeled or ^15N- and ^13C-labeled BRCA2 fragments were produced in E. coli BL21 DE3 Star cells grown in M9 medium containing either 0.5 g/l ^15NH4Cl or 0.5 g/l ^15NH4Cl and 2 g/l ^13C-glucose, respectively. […]
(§5) The ^15N/^13C-labeled F0 fragment was analyzed by 3D heteronuclear NMR. in order to assign its Hn, N, Cα, Cβ, and Co chemical shifts, and identify its binding site to HSF2BP. Therefore, 3D NMR HNCA, CBCACONH, HNCACB, HNCANNH, HNCO, and HNCACO experiments were performed on a 700 MHz Bruker AVANCE NEO spectrometer equipped with a triple resonance cryogenic TCI probe at 283 K. The data were processed using Topspin 4.0 (Bruker) and analyzed using CCPNMR 2.4[49]. […] For binding studies, 2D NMR ^1H-^15N HSQC experiments were recorded on a 3-mm-diameter sample tube containing the ^15N-labeled F0 at 100 μM in the absence and presence of the ARM domain at 100 μM, on a 950 MHz Bruker Avance III spectrometer equipped with a triple resonance cryogenic TCI probe at 283 K.

ARM domain of HSF2BP [6] = target: T1, ARM domain of HSF2BP; assay: 2D NMR 1H-15N HSQC of 15N-labeled F0 with ARM; assay type: binding; conditions: 15N-F0 100 μM, ARM 1:1, 950 MHz, 283 K, pH 7.0; region S2252-Q2342
Experimental: as §4, §5

[7] = target: the molecule itself; assay: SEC-MALS; free ARM; Superdex 200 10/300 GL; 25 mM Tris-HCl pH 7.5, 250 mM NaCl, 5 mM beta-mercaptoethanol; 0.8-1 mg/ml in 100 ul
[8] = target: the molecule itself; assay: SEC-MALS + other: SEC-SAXS; ARM with F15X; SEC-MALS on Superdex 200 10/300 GL, SEC-SAXS on Bio SEC-3; 25 mM Tris-HCl pH 7.5, 250 mM NaCl, 5 mM beta-mercaptoethanol; tetramer = two ARM dimers with two F15X
[9] = pH 7.5, expt 1, error in brackets
[10] = pH 7.5, expt 2, error in brackets

Chain of mouse BRCA2-GFP ∆12 (exon 12 deleted) (mouse (endogenous in mES cells)) (P97929 whole entry, stated change not applied): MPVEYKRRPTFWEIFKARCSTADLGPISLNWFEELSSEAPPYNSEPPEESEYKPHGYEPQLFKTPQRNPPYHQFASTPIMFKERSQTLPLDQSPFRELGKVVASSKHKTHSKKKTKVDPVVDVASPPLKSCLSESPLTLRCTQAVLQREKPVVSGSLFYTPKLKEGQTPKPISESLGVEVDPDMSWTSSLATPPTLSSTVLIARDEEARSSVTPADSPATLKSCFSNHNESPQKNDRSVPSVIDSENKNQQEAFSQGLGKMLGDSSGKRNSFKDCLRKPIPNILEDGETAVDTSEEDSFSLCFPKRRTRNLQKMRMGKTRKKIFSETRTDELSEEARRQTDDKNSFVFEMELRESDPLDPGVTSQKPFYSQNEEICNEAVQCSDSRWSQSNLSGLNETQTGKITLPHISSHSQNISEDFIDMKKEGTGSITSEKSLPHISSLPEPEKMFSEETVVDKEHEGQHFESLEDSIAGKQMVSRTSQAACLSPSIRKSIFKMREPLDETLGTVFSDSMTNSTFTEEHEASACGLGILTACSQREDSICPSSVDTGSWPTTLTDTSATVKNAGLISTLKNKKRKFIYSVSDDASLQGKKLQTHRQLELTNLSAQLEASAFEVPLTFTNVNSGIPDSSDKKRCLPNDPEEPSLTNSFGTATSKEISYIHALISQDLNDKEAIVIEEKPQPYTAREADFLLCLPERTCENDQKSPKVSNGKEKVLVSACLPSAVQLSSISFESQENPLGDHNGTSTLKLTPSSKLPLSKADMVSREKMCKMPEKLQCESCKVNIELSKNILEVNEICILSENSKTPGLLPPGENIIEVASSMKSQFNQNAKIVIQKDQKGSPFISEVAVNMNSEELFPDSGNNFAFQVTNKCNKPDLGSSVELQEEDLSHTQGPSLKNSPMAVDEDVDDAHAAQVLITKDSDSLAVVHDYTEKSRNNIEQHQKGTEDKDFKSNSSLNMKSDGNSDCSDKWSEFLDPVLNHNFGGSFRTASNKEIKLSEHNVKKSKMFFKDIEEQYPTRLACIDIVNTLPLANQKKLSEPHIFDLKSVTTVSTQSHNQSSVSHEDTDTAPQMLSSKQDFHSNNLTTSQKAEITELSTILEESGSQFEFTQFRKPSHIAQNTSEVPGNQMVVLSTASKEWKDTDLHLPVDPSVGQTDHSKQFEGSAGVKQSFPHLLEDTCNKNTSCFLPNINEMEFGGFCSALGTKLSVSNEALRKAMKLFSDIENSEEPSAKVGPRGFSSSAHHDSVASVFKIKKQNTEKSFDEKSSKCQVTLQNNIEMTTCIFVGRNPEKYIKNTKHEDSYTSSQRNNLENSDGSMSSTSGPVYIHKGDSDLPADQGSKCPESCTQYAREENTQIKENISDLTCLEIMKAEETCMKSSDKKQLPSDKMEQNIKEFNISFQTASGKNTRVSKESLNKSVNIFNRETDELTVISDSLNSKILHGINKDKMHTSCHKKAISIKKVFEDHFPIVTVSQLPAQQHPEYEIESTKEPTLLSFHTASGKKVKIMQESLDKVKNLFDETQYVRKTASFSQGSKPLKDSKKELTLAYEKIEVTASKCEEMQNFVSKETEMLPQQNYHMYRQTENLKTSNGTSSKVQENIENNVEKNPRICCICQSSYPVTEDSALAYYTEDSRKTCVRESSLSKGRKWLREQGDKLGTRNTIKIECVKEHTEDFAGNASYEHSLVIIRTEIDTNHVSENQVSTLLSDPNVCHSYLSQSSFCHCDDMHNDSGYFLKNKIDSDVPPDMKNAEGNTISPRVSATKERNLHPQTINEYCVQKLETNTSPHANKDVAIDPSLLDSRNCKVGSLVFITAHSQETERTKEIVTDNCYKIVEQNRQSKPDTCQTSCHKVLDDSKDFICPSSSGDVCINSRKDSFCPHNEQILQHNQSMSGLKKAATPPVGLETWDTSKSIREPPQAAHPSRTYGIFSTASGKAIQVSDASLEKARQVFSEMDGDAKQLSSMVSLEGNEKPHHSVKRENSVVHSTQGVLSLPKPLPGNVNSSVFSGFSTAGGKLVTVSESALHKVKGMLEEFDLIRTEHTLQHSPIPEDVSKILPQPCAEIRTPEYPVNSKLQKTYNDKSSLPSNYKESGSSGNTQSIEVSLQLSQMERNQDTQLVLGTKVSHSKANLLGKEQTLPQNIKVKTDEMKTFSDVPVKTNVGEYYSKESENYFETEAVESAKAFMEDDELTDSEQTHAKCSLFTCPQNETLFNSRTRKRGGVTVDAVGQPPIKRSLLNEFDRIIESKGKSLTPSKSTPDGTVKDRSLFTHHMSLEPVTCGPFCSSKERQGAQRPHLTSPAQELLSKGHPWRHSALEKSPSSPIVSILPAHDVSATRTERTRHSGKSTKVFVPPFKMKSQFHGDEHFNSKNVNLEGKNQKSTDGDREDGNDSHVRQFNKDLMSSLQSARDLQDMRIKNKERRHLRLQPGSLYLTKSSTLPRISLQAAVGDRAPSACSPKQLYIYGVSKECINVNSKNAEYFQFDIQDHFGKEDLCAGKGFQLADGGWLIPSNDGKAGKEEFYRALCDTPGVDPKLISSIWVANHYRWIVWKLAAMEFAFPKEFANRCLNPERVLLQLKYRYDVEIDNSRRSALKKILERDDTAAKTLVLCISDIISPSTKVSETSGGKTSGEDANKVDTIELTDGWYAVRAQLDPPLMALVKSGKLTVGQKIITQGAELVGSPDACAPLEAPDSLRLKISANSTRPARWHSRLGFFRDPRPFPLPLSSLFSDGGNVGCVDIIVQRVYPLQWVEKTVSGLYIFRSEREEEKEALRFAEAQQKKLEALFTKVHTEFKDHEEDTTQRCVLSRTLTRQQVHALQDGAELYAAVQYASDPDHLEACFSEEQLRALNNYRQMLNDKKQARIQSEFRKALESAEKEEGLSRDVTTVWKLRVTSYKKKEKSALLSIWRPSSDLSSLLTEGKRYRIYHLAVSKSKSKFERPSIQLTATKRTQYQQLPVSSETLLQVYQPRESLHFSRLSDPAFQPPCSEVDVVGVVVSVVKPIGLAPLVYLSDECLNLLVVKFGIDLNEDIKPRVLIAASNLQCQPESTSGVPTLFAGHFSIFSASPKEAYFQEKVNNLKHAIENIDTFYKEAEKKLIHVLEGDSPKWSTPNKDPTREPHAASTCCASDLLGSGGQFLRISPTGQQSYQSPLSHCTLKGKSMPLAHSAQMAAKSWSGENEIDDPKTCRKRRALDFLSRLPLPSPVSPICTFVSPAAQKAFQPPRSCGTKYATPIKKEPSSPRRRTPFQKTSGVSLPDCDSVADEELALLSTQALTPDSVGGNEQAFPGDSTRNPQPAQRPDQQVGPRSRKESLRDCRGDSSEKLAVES

Molecule: mouse BRCA2-∆12 in Hsf2bp^GFP/GFP Brca2^∆12/∆12 mES cells (from UniProt P97929 1-3329) (natural protein)
- percent loss of co-precipitation against wild-type BRCA2 [1]: 97 to 99%

Molecule: DGTIKDRRLFMHHVSLEPITTVPFRTTKERQE [F15XΔ12]
- oligomerization of ARM upon binding (ARM domain of HSF2BP [2]; listed as F15X∆12): does not oligomerize
- oligomerization of ARM upon binding (ARM domain of HSF2BP [2]; listed as motif 2): unable by itself to trigger oligomerization
- n (stoichiometry) (HSF2BP FL; pH 7.5, expt 1): 0.89
- ΔG (HSF2BP FL; pH 7.5, expt 1): -7.8 kcal/mol
- −TΔS (HSF2BP FL; pH 7.5, expt 1): -6.1 kcal/mol
- ΔH (±error) (HSF2BP FL; [9]): −1.7 (0.3) kcal/mol
- n (stoichiometry) (HSF2BP FL; pH 7.5, expt 2): 0.90
- ΔG (HSF2BP FL; pH 7.5, expt 2): -7.6 kcal/mol
- −TΔS (HSF2BP FL; pH 7.5, expt 2): -5.8 kcal/mol
- ΔH (±error) (HSF2BP FL; [10]): −1.8 (0.2) kcal/mol
- affinity (in words) (HSF2BP FL; pH 7.5, listed as F15X∆12): in the micromolar range
- affinity (in words) (HSF2BP FL; pH 7.5, listed as motif 2): micromolar affinity
- stoichiometry (HSF2BP FL): 1
- affinity relative to F0 (weaker) (HSF2BP FL; weaker than the affinity of HSF2BP for F0): 1000 -fold

B1: mouse HSF2BP, endogenous in mES cells (natural protein)
chain: MAATVGDGSGTEEACRNMESKEEFVKVRKKDLERLTTEVMQIRDFLPRILNGELLESFQKLKMVEKNLERKEQELEQLIMDREHFKARLETAQADSGREKKEKLALRQQLNEAKQQLLQQAEYCTQMGAVTCTLLWGVSSSEEVVKTILGGDKALKFFNITGQTMESFVKSLDGDVKEVDSDENQFVFALAGIVTNVAAIACGREFLVNSSRVLLDTMLQLLGDLKPGQCTKLKVLMLMSLYNVSINSKGLKYITESPGFIPLLWWLLSDPDAEVCLHTLRLIQSVVLEPDVFSKVASELQSSLPLQRILAMSKSRNSHLQSAAQELLEDLRALDCNV
- percent loss of co-precipitation against full-length BRCA2-GFP [3]: 95%

B2: F0: Human BRCA2 fragment aa 2213 to aa 2342 including mutation C2332T, recombinant (protein)
chain: STYSKDSENYFETEAVEIAKAFMEDDELTDSKLPSHATHSLFTCPENEEMVLSNSRIGKRRGEPLILVGEPSIKRNLLNEFDRIIENQEKSLKASKSTPDGTIKDRRLFMHHVSLEPITTVPFRTTKERQ
modifications: left off: GB1, C-terminal, cleaved | His6, C-terminal, cleaved
notes: Human BRCA2 fragment aa 2213 to aa 2342 including mutation C2332T, recombinant
- binding (HSF2BP mutant R200T): does not bind
- ΔG (ARM domain of HSF2BP [4]; pH 7.5, expt 1): -10 kcal/mol
- −TΔS (ARM domain of HSF2BP [4]; pH 7.5, expt 1): -1.7 kcal/mol
- ΔH (±error) (ARM domain of HSF2BP [4]; [9]): −8.3 (0.2) kcal/mol
- ΔG (ARM domain of HSF2BP [4]; pH 7.5, expt 2): -10.1 kcal/mol
- −TΔS (ARM domain of HSF2BP [4]; pH 7.5, expt 2): 1.8 kcal/mol
- ΔH (±error) (ARM domain of HSF2BP [4]; [10]): −11.9 (0.2) kcal/mol
- stoichiometry (ARM domain of HSF2BP [4]; one BRCA2 peptide binds to two ARM): 0.5
- transient α-helix population, region N2291-S2303 [5]: about 25%
- ΔG (HSF2BP FL; pH 7.5, expt 1): -11.8 kcal/mol
- −TΔS (HSF2BP FL; pH 7.5, expt 1): -0.8 kcal/mol
- ΔH (±error) (HSF2BP FL; [9]): −11.0 (0.1) kcal/mol
- −TΔS (HSF2BP FL; pH 7.5, expt 2): -1.0 kcal/mol
- ΔH (±error) (HSF2BP FL; [10]): −10.9 (0.1) kcal/mol
- stoichiometry (HSF2BP FL): 0.5
- affinity ratio HSF2BP vs ARM (HSF2BP FL; HSF2BP binds tighter to F0 than does ARM): about 25 -fold
- HSQC peak intensity ratio (with ARM / free) (ARM domain of HSF2BP [6]): lower than 0.4

B3: armadillo domain of HSF2BP, from aa 122 to aa 334 (ARM) (domain or fragment, human, UniProt O75031 122-334, looked up)
chain: EMGAAACTLLWGVSSSEEVVKAILGGDKALKFFSITGQTMESFVKSLDGDVQELDSDESQFVFALAGIVTNVAAIACGREFLVNSSRVLLDTILQLLGDLKPGQCTKLKVLMLMSLYNVSINLKGLKYISESPGFIPLLWWLLSDPDAEVCLHVLRLVQSVVLEPEVFSKSASEFRSSLPLQRILAMSKSRNPRLQTAAQELLEDLRTLEHNV
notes: Free ARM is a dimer (SEC-MALS); four ARM with two F15X in the complex; A selenomethionine-labelled form was used for the deposited crystal structure; also called HSF2BP ARM; H3 (recombinant); source: E. coli BL21 DE3 Rosetta2, purified (HisTrap, TEV cleavage, SEC)
- stoichiometry N [7]: 2
- stoichiometry N [8]: 4
